The target in data set [1] is Wildcat Gp80 (mycobacteriophage Wildcat). Briefly: SEC; analytical Superose 6 10/300 GL, FPLC, 0.4 ml/min, 40 mM Tris-HCl pH 7.5, 50 mM KCl, 2 mM DTT; Mw from a standard curve (thyroglobulin, beta-amylase, BSA, ovalbumin, cytochrome C).
Data set [2] shares this target. The experiment in a line: dynamic light scattering; higher protein concentrations (1 uM unless otherwise stated), 50 mM Tris-HCl pH 8.0, 50 mM KCl, 2 mM DTT, 1 mM MgCl2, 25°C; weight average hydrodynamic radius; no cofactor; oligomer also kept with 4 mM AMP-PNP and with 4 mM ATP plus 24 uM 41 mer ssDNA.
Data set [3] concerns the target T1, WCGp80 (Wildcat Gp80, DnaB-type helicase) (Mycobacteriophage Wildcat, UniProt Q19XY0 1-441).
T1 sequence: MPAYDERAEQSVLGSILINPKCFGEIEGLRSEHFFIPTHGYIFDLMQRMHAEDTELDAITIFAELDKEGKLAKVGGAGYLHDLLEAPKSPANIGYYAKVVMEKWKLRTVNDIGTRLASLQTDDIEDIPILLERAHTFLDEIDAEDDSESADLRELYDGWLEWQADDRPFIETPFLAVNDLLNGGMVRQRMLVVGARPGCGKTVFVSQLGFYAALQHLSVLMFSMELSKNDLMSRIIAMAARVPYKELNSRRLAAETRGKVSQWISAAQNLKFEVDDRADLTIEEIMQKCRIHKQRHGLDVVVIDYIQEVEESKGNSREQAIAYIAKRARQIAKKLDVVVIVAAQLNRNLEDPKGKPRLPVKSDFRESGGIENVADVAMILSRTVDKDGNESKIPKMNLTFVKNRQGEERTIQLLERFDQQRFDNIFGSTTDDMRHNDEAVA
Briefly: tryptophan fluorescence quenching; 40 nM protein; S6 Fig legend gives 56.44 nM; Binding buffer, pH and temperature not given in the material; Trp quenching ex 280/em 340 nm (helicase assay buffer E: 50 mM Tris-HCl pH 8.0, 50 mM KCl, 2 mM DTT, 0.25 mg/ml BSA, 4 mM MgCl2, 4 mM ATP, 4% sucrose, 37 C). To be noted: protein: recombinant; tags: N-terminal His6 (pQE30); chain copies: 6; single strand.

Data set [4] addresses T1, WCGp80 (Wildcat Gp80, DnaB-type …). Briefly: fluorescence polarization; one-site non-cooperative fit; Binding buffer, pH and temperature not given in the material; Trp quenching ex 280/em 340 nm (helicase assay buffer E: 50 mM Tris-HCl pH 8.0, 50 mM KCl, 2 mM DTT, 0.25 mg/ml BSA, 4 mM MgCl2, 4 mM ATP, 4% sucrose, 37 C). The following applies: protein: recombinant; tags: N-terminal His6 (pQE30); chain copies: 6; label: 5' 6-FAM on oligo 2; fork 20 bp stem; 40 nt 5' tail on oligo1 and 40 nt 3' tail on oligo2. In general terms: Fluorescence polarisation rises when a labelled molecule tumbles more slowly, as on binding a larger partner.

For data set [5] the target is unchanged. Briefly: tryptophan fluorescence quenching; 40 nM protein; S6 Fig legend gives 152 nM; Binding buffer, pH and temperature not given in the material; Trp quenching ex 280/em 340 nm (helicase assay buffer E: 50 mM Tris-HCl pH 8.0, 50 mM KCl, 2 mM DTT, 0.25 mg/ml BSA, 4 mM MgCl2, 4 mM ATP, 4% sucrose, 37 C). To be noted: protein: recombinant; tags: N-terminal His6 (pQE30); chain copies: 6; single strand.

For orientation: stoichiometry N means the number of molecules, sites or subunits per partner or assembly. In the case of Wildcat Gp80 (enzyme), the stoichiometry N in data set [1] and in data set [2] was 6 in each case.
A word on the Kd: it is the free concentration of one partner at which half of the binding sites on the other are occupied at equilibrium, for simple one-to-one binding. Regarding TCGAGCTCGGTACCCGGGGATCCTCTAGAGTCGACCTGCAGG (ssDNA) [41-mer], the equilibrium dissociation constant (Kd) in data set [3] stood at 58 nM.

B1: fork substrate (oligo1/oligo2) (mixed)
DNA 1: GCCCTGATCACGGTACTCGGTTTTTTTTTTTTTTTTTTTTGGCTCCTCTAGACTCGACCG
DNA 2: CGGTCGAGTCTAGAGGAGCCTTTTTTTTTTTTTTTTTTTTTTTTTTTTTTTTTTTTTTTT
For B1, the dissociation constant Kd in data set [4] came to 9.5 nM.

B2: 60-mer (oligo2) (ssDNA)
DNA: CGGTCGAGTCTAGAGGAGCCTTTTTTTTTTTTTTTTTTTTTTTTTTTTTTTTTTTTTTTT
With B2, the dissociation constant (Kd) in data set [5] was 164 nM.

The record behind these values is paper PMC4523182, “Biochemical Characterization of a Mycobacteriophage Derived DnaB Ortholog Reveals New Insight into the Evolutionary Origin of DnaB Helicases”.
